Measurements: patent US20220332804A1 (CSL INNOVATION, published 2022)

What was measured:
Assay in all cases: SPR, KD relative to WT C2;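 also: biacore SPR at 37 °C, anti-C2 mAbs captured via immobilised goat anti-human IgG, C2 alanine or serine surface mutants as analytes, 1:1 model fitted, double-referenced sensograms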
[1] = target: T1, human C2 A472S (human, UniProt P06681 21-752)
T1 sequence: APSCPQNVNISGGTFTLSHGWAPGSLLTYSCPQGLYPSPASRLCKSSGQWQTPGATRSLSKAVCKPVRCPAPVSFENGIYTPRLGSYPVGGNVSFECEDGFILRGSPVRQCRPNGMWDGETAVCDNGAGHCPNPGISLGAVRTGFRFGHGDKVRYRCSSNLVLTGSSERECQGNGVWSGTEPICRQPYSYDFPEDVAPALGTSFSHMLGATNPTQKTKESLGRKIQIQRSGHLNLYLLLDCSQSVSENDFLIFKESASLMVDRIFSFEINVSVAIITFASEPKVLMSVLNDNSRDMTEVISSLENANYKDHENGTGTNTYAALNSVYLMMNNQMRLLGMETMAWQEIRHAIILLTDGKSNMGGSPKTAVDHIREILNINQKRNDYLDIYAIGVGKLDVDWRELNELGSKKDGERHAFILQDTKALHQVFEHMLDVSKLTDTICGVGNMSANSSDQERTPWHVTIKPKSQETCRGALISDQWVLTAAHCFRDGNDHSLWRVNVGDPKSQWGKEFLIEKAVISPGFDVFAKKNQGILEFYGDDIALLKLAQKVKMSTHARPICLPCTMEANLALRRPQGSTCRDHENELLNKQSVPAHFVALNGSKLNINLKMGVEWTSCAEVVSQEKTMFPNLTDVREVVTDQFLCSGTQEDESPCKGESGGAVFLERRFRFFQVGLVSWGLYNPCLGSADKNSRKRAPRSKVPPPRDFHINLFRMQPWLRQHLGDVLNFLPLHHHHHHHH

[2] = target: T2, human C2 K715A (human, UniProt P06681 21-752)
T2 sequence: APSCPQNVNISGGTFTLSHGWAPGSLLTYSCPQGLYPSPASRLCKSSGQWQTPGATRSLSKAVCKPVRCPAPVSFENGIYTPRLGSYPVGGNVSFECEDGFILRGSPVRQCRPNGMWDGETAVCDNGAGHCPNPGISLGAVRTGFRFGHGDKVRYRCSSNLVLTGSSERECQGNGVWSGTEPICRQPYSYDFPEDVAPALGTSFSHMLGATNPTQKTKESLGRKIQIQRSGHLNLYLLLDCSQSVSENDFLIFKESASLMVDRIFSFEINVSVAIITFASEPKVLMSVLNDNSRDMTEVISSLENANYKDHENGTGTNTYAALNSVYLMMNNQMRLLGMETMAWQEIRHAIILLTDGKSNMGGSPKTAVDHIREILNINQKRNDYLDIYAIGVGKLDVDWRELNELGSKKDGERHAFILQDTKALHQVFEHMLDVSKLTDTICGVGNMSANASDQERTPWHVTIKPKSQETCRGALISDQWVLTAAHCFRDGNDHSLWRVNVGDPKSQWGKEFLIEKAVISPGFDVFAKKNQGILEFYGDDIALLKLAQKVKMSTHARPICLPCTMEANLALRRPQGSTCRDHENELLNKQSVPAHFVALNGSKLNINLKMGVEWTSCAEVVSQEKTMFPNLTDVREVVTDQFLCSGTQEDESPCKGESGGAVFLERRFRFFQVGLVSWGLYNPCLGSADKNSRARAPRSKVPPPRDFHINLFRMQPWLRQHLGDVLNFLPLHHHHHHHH

[3] = target: T3, human C2 L620A (human, UniProt P06681 21-752)
T3 sequence: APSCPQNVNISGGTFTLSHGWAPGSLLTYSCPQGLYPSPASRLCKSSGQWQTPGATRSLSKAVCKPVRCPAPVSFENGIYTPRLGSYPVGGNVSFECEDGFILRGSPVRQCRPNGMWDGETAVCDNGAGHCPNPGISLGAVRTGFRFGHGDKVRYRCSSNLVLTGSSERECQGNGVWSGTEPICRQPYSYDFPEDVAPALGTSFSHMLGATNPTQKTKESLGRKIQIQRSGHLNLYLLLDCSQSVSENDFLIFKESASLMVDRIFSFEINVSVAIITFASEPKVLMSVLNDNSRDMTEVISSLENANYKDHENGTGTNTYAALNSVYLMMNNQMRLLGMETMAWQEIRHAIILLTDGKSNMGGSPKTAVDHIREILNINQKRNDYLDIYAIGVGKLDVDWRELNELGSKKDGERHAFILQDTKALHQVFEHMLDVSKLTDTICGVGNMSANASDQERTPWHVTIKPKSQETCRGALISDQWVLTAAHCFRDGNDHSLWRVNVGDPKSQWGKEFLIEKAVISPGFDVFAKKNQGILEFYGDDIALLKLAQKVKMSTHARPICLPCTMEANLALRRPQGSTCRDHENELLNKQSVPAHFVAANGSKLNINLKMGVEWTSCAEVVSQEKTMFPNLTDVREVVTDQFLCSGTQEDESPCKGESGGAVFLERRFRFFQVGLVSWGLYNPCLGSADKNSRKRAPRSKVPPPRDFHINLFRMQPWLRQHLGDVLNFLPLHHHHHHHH

[4] = target: T4, human C2 R714A (human, UniProt P06681 21-752)
T4 sequence: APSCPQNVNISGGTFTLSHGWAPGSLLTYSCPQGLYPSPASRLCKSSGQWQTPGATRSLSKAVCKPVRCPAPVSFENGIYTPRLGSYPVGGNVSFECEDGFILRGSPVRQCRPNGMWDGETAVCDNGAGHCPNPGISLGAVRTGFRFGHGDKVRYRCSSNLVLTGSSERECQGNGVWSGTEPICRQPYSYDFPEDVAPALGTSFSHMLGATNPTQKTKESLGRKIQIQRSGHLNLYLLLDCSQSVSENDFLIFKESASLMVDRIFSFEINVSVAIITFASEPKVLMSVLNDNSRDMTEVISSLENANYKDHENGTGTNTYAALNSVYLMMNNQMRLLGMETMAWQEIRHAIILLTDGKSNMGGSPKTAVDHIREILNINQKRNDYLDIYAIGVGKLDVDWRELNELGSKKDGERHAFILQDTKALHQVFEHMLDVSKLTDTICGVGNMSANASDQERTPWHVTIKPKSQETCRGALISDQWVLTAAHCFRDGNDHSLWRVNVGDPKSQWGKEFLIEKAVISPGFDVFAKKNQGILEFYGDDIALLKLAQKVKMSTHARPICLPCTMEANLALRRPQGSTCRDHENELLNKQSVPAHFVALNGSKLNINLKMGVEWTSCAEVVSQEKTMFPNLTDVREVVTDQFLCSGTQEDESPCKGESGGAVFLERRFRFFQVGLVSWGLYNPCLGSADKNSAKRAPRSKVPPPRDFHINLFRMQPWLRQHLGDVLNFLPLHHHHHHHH

B1: RF16-226 (antibody, human IgG4 S228P, lambda)
heavy: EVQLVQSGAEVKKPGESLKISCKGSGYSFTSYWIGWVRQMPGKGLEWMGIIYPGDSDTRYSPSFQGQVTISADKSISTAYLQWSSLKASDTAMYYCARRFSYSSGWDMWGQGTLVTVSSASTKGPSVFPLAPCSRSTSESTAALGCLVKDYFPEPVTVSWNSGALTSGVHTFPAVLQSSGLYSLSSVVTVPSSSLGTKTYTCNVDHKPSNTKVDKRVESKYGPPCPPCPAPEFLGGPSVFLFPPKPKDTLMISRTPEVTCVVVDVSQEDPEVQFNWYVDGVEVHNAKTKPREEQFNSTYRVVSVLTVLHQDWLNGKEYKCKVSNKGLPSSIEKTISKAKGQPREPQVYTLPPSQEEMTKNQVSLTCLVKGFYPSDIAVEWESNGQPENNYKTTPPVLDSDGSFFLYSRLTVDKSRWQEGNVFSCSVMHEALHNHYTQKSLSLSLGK
light: SYELTQPPSVSVSPGQTARITCSGDALTSKYVAWYQQKSGLAPLLVIYEDTRRPSGIPAKFSGSSSGSVATLTISGAHGDDEADYYCYSTDASGHQRVFGGGTKLTVLSQPKAAPSVTLFPPSSEELQANKATLVCLISDFYPGAVTVAWKADGSPVKAGVETTKPSKQSNNKYAASSYLSLTPEQWKSHRSYSCQVTHEGSTVEKTVAPTECS
notes: pH-dependent anti-C2 antibody from a phage display library; also called WT
Fold diff [1]: 5 fold | Fold diff [2]: 2 fold | Fold diff [3]: 1 fold | Fold diff [4]: 5 fold
